Assay results: patent US9644025

Molecular target: Human FcγRII, His-tagged domain (R&D Systems, Cat # 1330-CD) (human) (UniProt P12318)
Test: SPR (Biacore 3000), His-tagged receptor captured by penta-His antibody on CM5 chip, antibody injected; steady-state RU relative to control

Bapineuzumab (antibody)
Relative Binding Capability (%): 100%
